# Measurements reported in paper PMC4340053, “The DEAH-box Helicase Dhr1 Dissociates U3 from the Pre-rRNA to Promote Formation of the Central Pseudoknot” (PLoS Biology, 2015).
# Residue numbers refer to the chain shown, from its start. In names and notes the source's numbering stands.
# B1: Dhr1 (Ecm16) (Saccharomyces cerevisiae S288C) (protein)
# chain: MGTYRKRFNEKARSGHMAKLKELKRIRNKQFTRQDENDERVENPDSAPAESSTTEPNANAEILEPLTEEEKKMKKRKLQELFTPKESKVSRLKKKRLDKFIEHQLKREERKTIIGKLQDYKIDTSLLTSSKRLGEGRQTKKEEFKEALSLERQGRGNEQTNEILYEEYEPKVWDEYGEGGSSEDDDGEDDFEASFGSMPKPTDNEEKKSSGFIDHRPAKFGGSGLSFGFSNIKVINKESKTPKKKYNWRQRVEMEELKKHGKEDEMDFDTTSEDDDEEEDQEEEDKMHPSENPLEEVESADSETGSEKFDQNDVANEFKDWANQEIKKLEGRDQELVTPTLNIDYKPIIRKEDLDDGLQEAYVPINENSTRKAFYVEVSRSDEIQKARIQLPVFGEEHKIMEAIHHNDVVIICGETGSGKTTQVPQFLYEAGFGAEDSPDYPGMVGITQPRRVAAVSMAERVANELGDHGHKVGYQIRFDSTAKEDTKVKFMTDGVLLREMMHDFKLTKYSSIIIDEAHERNINTDILIGMLSRCVRLRAKLHKENPIEHKKLKLIIMSATLRVSDFSENKTLFPIAPPVLQVDARQFPVSIHFNRRTAFNYTDEAFRKTCKIHQKLPPGAILVFLTGQQEITHMVKRLRKEFPFKKNSKYNKDLETPVSKMGINSKTTDLEAEDIDFSVQVIDQDKFKSAIRYEEDEGNSGNGEDEEDEEEEGFEEVLTEGQTANDPLYVLPLYSLLPTKEQMRVFQKPPQGSRLCIVATNVAETSLTIPGVRYVVDSGRSKERKYNESNGVQSFEVGWVSKASANQRSGRAGRTGPGHCYRLYSSAVFEHDFEQFSKPEILRMPVESIVLQMKSMAIHNIINFPFPTPPDRVALSKAIQLLQYLGALDNKEMITEDGKKMSLFPLSPRFSKMLLVSDEKACLPYIVAIVSALSVGDPFINEFELGINEISRKPNPDENLDDKIREHDESTPGMDPELKKELRSKFYKSRSQFSKLDKFSDVFRLLSVVSAMDYVPKEQKEIFMKKNFLRGKLMEEIVKLRKQLMYIIKSNTSKENIAVVIRNEDLKSDIPSVIQIKLLKQMICAGFVDHVAVRADVLFPDDAKITNRTSIINIPYIPVLATRTPNIEDCFVYIHPTSILNNLGEMPPKYMLYYSLHLGGNNKTRMNTLCDIASTPLANIARKGLLLTYSKPLTGQGLKTVNLSPTERYCYVVPRFGSTVDNDLKIGWDLNPIAVHQKKQKGQWTVIKFITRKGFQTITGEEKEKK
# notes: full-length with C-terminal Leu-Glu-6xHis (pAJ2312), tag kept; expressed in E. coli BL21 Star (DE3), RNase-treated, Ni-NTA and SP HiTrap
# B2: Dhr1 (Ecm16) (Saccharomyces cerevisiae S288C; D516A/E517A) (protein)
# chain: B1 chain with D516A, E517A
# notes: as for B1
# B3: Dhr1 (Ecm16) (Saccharomyces cerevisiae S288C; K420A) (protein)
# chain: B1 chain with K420A
# notes: as for B1
# Substrate: Nc1ncnc2c1ncn2[C@@H]1O[C@H](COP(=O)(O)OP(=O)(O)OP(=O)(O)O)[C@@H](O)[C@H]1O
# Assay: purified protein
# Assay type: biochemical, Saccharomyces cerevisiae
# Settings: poly(A) RNA present, equimolar MgCl2, pH 8.0, room temperature
Protein,Km [µM],kcat [s⁻¹]
B1,106,0.217
B2,136,0.03
B3,1000,0.05
